Ratio, Km and kcat data for three molecules are collected here from ChEMBL document CHEMBL1157347, “Chemoenzymatic syntheses of prenylated aromatic small molecules using Streptomyces prenyltransferases with relaxed substrate specificities” (Bioorg Med Chem, 2008).

The subject of series [1] is NphB prenyltransferase (Streptomyces sp. CL190). As to the kind of experiment: Ratio of Kcat to Km of Streptomyces sp. CL190 NphB prenyltransferase assessed as formation of 4-(3,7-dimethylocta-2,6-dienyl)naphthalene-1,6-diol.
For series [2] the test system is unchanged. As to the kind of experiment: Ratio of Kcat to Km of Streptomyces sp. CL190 NphB prenyltransferase assessed as formation of 5-(3,7-dimethylocta-2,6-dienyl)naphthalene-1,6-diol.
Series [3] shares this test system. As to the kind of experiment: Ratio of Kcat to Km of Streptomyces sp. CL190 NphB prenyltransferase assessed as formation of 2-(3,7-dimethylocta-2,6-dienyl)naphthalene-1,6-diol.
Series [4] addresses T1, Prenyltransferase homolog (Streptomyces coelicolor A3) (UniProt Q9FBZ2).
T1 sequence (whole entry): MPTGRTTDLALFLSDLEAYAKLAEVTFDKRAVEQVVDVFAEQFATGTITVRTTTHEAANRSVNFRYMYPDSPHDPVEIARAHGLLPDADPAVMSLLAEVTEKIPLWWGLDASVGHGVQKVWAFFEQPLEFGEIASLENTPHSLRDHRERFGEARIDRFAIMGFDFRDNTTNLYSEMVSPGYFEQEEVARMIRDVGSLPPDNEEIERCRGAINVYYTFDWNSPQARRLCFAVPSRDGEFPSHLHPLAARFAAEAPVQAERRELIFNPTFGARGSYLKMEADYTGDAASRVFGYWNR
As to the kind of experiment: Ratio of Kcat to Km of Streptomyces coelicolor A3(2) prenyltransferase assessed as formation of 7-(3,7-Dimethyl-octa-2,6-dienyloxy)-5-hydroxy-2-(4-hydroxy-phenyl)-chroman-4-one.

Series [5] concerns the target T1, Prenyltransferase homolog (Streptomyces coelicolor A3). As to the kind of experiment: Ratio of Kcat to Km of Streptomyces coelicolor A3(2) prenyltransferase assessed as formation of 6-(3,7-Dimethyl-octa-2,6-dienyl)-5,7-dihydroxy-2-(4-hydroxy-phenyl)-chroman-4-one.
Substrate in series [6]: O=C1C[C@@H](c2ccc(O)cc2)Oc2cc(O)cc(O)c21
As to the kind of experiment: Activity for Streptomyces coelicolor A3(2) prenyltransferase assessed as formation of 7-(3,7-Dimethyl-octa-2,6-dienyloxy)-5-hydroxy-2-(4-hydroxy-phenyl)-chroman-4-one.

Substrate in series [7]: O=C1C[C@@H](c2ccc(O)cc2)Oc2cc(O)cc(O)c21
As to the kind of experiment: Activity for Streptomyces coelicolor A3(2) prenyltransferase assessed as formation of 6-(3,7-Dimethyl-octa-2,6-dienyl)-5,7-dihydroxy-2-(4-hydroxy-phenyl)-chroman-4-one.

For series [8], the target named is NphB prenyltransferase (Streptomyces sp. CL190). As to the kind of experiment: Activity for Streptomyces sp. CL190 NphB prenyltransferase assessed as formation of 4-(3,7-dimethylocta-2,6-dienyl)naphthalene-1,6-diol.
For series [9] the target is unchanged. As to the kind of experiment: Activity for Streptomyces sp. CL190 prenyltransferase NphB assessed as formation of 5-(3,7-dimethylocta-2,6-dienyl)naphthalene-1,6-diol.
The target is the same in series [10]. As to the kind of experiment: Activity for Streptomyces sp. CL190 prenyltransferase NphB assessed as formation of 2-(3,7-dimethylocta-2,6-dienyl)naphthalene-1,6-diol.
The target is the same in series [11]. As to the kind of experiment: Activity for Streptomyces sp. CL190 prenyltransferase NphB assessed as formation of 1-(3,7-dimethylocta-2,6-dienyl)naphthalene-2,7-diol.
For series [12] the target is unchanged. As to the kind of experiment: Activity for Streptomyces sp. CL190 NphB prenyltransferase assessed as formation of 2-(3,7-dimethylocta-2,6-dienyl)-5-pentylbenzene-1,3-diol.
Series [13] has the same target. As to the kind of experiment: Activity for Streptomyces sp. CL190 NphB prenyltransferase assessed as formation of 4-(3,7-dimethylocta-2,6-dienyl)-5-pentylbenzene-1,3-diol.
Series [14] shares this target. As to the kind of experiment: Activity for Streptomyces sp. CL190 NphB prenyltransferase assessed as formation of 5-(4-hydroxystyryl)-2-((E)-3,7-dimethylocta-2,6-dienyl)benzene-1,3-diol.
Series [15] shares this target. As to the kind of experiment: Activity for Streptomyces sp. CL190 NphB prenyltransferase assessed as formation of 7-(3,7-dimethylocta-2,6-dienyloxy)-3-(4-hydroxyphenyl)-2,3-dihydrochromen-4-one.
Series [16] shares this target. As to the kind of experiment: Activity for Streptomyces sp. CL190 prenyltransferase NphB assessed as formation of 7-(3,7-Dimethyl-octa-2,6-dienyloxy)-5-hydroxy-2-(4-hydroxy-phenyl)-chromen-4-one.
For series [17] the target is unchanged. As to the kind of experiment: Activity for Streptomyces sp. CL190 prenyltransferase NphB assessed as formation of 6-(3,7-Dimethyl-octa-2,6-dienyl)-5,7-dihydroxy-2-(4-hydroxy-phenyl)-chromen-4-one.
The target is the same in series [18]. As to the kind of experiment: Activity for Streptomyces sp. CL190 prenyltransferase NphB assessed as formation of 7-(3,7-dimethylocta-2,6-dienyloxy)-5-hydroxy-3-(4-hydroxyphenyl)-2,3-dihydrochromen-4-one.

On to `Oc1ccc2c(O)cccc2c1`, for which the values for the Ratio in series [1], in series [2] and in series [3] were 0.3, 7.7 and 2.2, respectively.
`O=C1C[C@@H](c2ccc(O)cc2)Oc2cc(O)cc(O)c21`: the Ratio in [4] amounted to 1.4; in series [5], 0.31.

B1: Prenyltransferase homolog (Streptomyces coelicolor A3), Q9FBZ2 (protein)
chain: T1 sequence (whole entry)
What is called Km is the concentration of substrate that gives half-maximal velocity. One may read the kcat as the maximal rate divided by the concentration of active sites. B1: the Km in [6] is 1600 µM; in series [7], 2100 µM; in [8], 1050 µM; in series [9] it was 540 µM; in series [10], 510 µM; in [11], 340 µM. Moreover, the Km was 520 µM in series [12]; 640 µM in [13]; 440 µM in series [14]; 290 µM in series [15]; 580 µM in [16]; 530 µM in series [17]. Besides, the Km in [18] stood at 330 µM. In addition, the kcat in series [8] was 0.00032 s⁻¹; in series [9], 0.0042 s⁻¹; in series [10], 0.0011 s⁻¹; in series [11], 0.00047 s⁻¹; in series [12], 2.7e-05 s⁻¹; in series [13] it was 4.3e-05 s⁻¹. In addition, the kcat amounted to 5.3e-05 s⁻¹ in [14]; 0.00017 s⁻¹ in series [15]; 0.00033 s⁻¹ in series [16]; 0.0006 s⁻¹ in series [17]; 0.00048 s⁻¹ in [18].
